T1: EsCas13d, nuclease-dead (Eubacterium siraeum, UniProt B0MS50, R295A;H300A;R849A;H854A)
T1 sequence: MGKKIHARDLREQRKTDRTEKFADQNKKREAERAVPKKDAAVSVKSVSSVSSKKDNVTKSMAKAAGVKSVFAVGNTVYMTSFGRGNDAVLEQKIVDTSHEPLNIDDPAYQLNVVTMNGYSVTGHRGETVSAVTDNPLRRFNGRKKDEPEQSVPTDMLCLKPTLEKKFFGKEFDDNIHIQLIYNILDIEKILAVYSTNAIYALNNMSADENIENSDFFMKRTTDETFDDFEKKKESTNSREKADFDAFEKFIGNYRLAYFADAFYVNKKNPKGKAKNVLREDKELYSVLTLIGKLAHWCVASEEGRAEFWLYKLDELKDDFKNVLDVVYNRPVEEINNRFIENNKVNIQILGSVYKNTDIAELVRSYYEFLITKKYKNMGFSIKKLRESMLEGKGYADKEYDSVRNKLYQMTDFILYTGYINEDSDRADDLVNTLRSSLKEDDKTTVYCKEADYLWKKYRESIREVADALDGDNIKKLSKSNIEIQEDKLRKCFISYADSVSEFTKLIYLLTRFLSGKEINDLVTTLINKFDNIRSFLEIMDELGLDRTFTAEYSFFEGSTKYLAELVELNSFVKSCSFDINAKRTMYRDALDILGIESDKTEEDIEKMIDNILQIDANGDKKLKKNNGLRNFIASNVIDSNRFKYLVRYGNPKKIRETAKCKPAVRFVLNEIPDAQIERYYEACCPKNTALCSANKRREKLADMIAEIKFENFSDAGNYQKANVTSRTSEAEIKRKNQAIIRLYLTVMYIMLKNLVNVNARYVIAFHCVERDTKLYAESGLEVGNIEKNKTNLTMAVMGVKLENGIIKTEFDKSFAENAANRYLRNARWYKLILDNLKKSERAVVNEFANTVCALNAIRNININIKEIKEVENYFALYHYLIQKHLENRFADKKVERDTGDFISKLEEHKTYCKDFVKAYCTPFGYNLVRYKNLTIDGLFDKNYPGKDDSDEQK

B1: target 1 U3A,U11C (mixed)
RNA 1: CACCCGUGCAAAAAUGCAGGGGUCUAAAACUGAGCGGAUAACCUCUCUAUGG
RNA 2: GGGAAUGGAUCCACAUCUACGAAUUCGUACCAUAGAGAGGCUAUCCGCACACCGAGAUCGGAAGAGCACACGU
B2: target 1 G12U,A18U (mixed)
RNA 1: CACCCGUGCAAAAAUGCAGGGGUCUAAAACUGAGCGGAUAACCUCUCUAUGG
RNA 2: GGGAAUGGAUCCACAUCUACGAAUUCGUACCAUUGAGAGUUUAUCCGCUCACCGAGAUCGGAAGAGCACACGU
B3: target 3 insU 3' of 22,insU 3' of 6 (mixed)
RNA 1: CACCCGUGCAAAAUUGCAGGGGUCUAAAACGACCUGAAUAUUUCAGAUCAAA
RNA 2: GGGAAUGGAUCCACAUCUACGAAUUCGUUUUUUGAUCUGAAAUAUUCUAGGUCUGCAGAUCGGAAGAGCACACGU
B4: target 3 insU 3' of 16,insG 3' of 2 (mixed)
RNA 1: CACCCGUGCAAAAUUGCAGGGGUCUAAAACGACCUGAAUAUUUCAGAUCAAA
RNA 2: GGGAAUGGAUCCACAUCUACGAAUUCGUUUUUGAUCUUGAAAUAUUCAGGUGCUGCAGAUCGGAAGAGCACACGU
B5: target 3 insU 3' of 11,insG 3' of 5 (mixed)
RNA 1: CACCCGUGCAAAAUUGCAGGGGUCUAAAACGACCUGAAUAUUUCAGAUCAAA
RNA 2: GGGAAUGGAUCCACAUCUACGAAUUCGUUUUUGAUCUGAAAUUAUUCAGGGUCUGCAGAUCGGAAGAGCACACGU
B6: target 3 C16U,U22A (mixed)
RNA 1: CACCCGUGCAAAAUUGCAGGGGUCUAAAACGACCUGAAUAUUUCAGAUCAAA
RNA 2: GGGAAUGGAUCCACAUCUACGAAUUCGUUAUUGAUUUGAAAUAUUCAGGUCUGCAGAUCGGAAGAGCACACGU
B7: target 3 insA 3' of 21,insC 3' of 3 (mixed)
RNA 1: CACCCGUGCAAAAUUGCAGGGGUCUAAAACGACCUGAAUAUUUCAGAUCAAA
RNA 2: GGGAAUGGAUCCACAUCUACGAAUUCGUUUUAUGAUCUGAAAUAUUCAGGCUCUGCAGAUCGGAAGAGCACACGU
B8: target 3 insU 3' of 5,insA 3' of 4 (mixed)
RNA 1: CACCCGUGCAAAAUUGCAGGGGUCUAAAACGACCUGAAUAUUUCAGAUCAAA
RNA 2: GGGAAUGGAUCCACAUCUACGAAUUCGUUUUUGAUCUGAAAUAUUCAUGAGUCUGCAGAUCGGAAGAGCACACGU
B9: target 3 U2C,U8G (mixed)
RNA 1: CACCCGUGCAAAAUUGCAGGGGUCUAAAACGACCUGAAUAUUUCAGAUCAAA
RNA 2: GGGAAUGGAUCCACAUCUACGAAUUCGUUUUUGAUCUGAAAUAGUCAGGCCUGCAGAUCGGAAGAGCACACGU
B10: target 3 insA 3' of 15,insU 3' of 3 (mixed)
RNA 1: CACCCGUGCAAAAUUGCAGGGGUCUAAAACGACCUGAAUAUUUCAGAUCAAA
RNA 2: GGGAAUGGAUCCACAUCUACGAAUUCGUUUUUGAUCUAGAAAUAUUCAGGUUCUGCAGAUCGGAAGAGCACACGU
B11: target 3 U7C (mixed)
RNA 1: CACCCGUGCAAAAUUGCAGGGGUCUAAAACGACCUGAAUAUUUCAGAUCAAA
RNA 2: GGGAAUGGAUCCACAUCUACGAAUUCGUUUUUGAUCUGAAAUAUCCAGGUCUGCAGAUCGGAAGAGCACACGU
B12: target 3 C1A,U7C (mixed)
RNA 1: CACCCGUGCAAAAUUGCAGGGGUCUAAAACGACCUGAAUAUUUCAGAUCAAA
RNA 2: GGGAAUGGAUCCACAUCUACGAAUUCGUUUUUGAUCUGAAAUAUCCAGGUAUGCAGAUCGGAAGAGCACACGU
B13: target 3 C6G,U7A (mixed)
RNA 1: CACCCGUGCAAAAUUGCAGGGGUCUAAAACGACCUGAAUAUUUCAGAUCAAA
RNA 2: GGGAAUGGAUCCACAUCUACGAAUUCGUUUUUGAUCUGAAAUAUAGAGGUCUGCAGAUCGGAAGAGCACACGU

A word on the Kd: it is the constant that tells how readily two partners part at equilibrium.

The target of the data set is T1, EsCas13d, nuclease-dead. As to the kind of experiment: crRNA (strand 1, pre-loaded); Mg2+; 40 mM Tris-HCl pH 7.5, 150 mM NaCl, 6 mM MgCl2, 1 mM DTT, 0.1% Tween-20, 0.2 mg/ml BSA; 25 C; 10 min per concentration, then washed. As to conditions: tags: His6-TwinStrep-SUMO cleaved; N-terminal SNAP kept (SNAP-Surface 488); label: 3' end held by stalled T7 RNA polymerase.
In turn, B1 gave a Kd of 10.3 ± 1.2 nM.
Molecule B2 had a Kd of 44 ± 10 nM.
The figure for B3 is 27.5 ± 3.7 nM; for B4 it is 16.1 ± 1.9 nM.
Regarding B5, the affinity, expressed as Kd, was 104 ± 29 nM.
B6: the dissociation constant (Kd) came to 70 ± 11 nM.
Then B7, with 35 ± 5 nM; and B8, with 9.9 ± 1.8 nM.
The figure for B9 is 95.5 ± 20.5 nM; for B10 it is 59.5 ± 12.5 nM.
The figure for B11 is 56 ± 7 nM; for B12 it is 100 ± 40 nM; for B13 it is 48.5 ± 5.5 nM.

The record behind these values is publication PMC10786891, “Massively parallel profiling of RNA-targeting CRISPR-Cas13d”.
